The text below walks through data of patent publication US20240026009A1 (Memorial Sloan Kettering, published 2024).

The target in assay [1] is T1, human Galectin-3 (LGALS3) (human, UniProt P17931 2-250, limits assumed).
T1 construct: also called human Gal-3; Gal-3
The assay is described as follows: SPR, increasing concentrations of the mAb. The source says: Clones 46H02 and 20F08 were then subjected to determination of binding parameters using surface plasmon resonance (SPR) in the presence of increasing concentrations of these antibodies.
A general note: Surface plasmon resonance follows binding to a sensor surface in real time, without labels.

The target in assay [2] is T2, mouse Gal-3 (mouse, UniProt P16110 2-264, limits assumed).
T2 construct: also called mouse Galectin-3; Lgal3
The assay is described as follows: ELISA on mouse Gal-3 (moGal3). On the technique in general: An ELISA detects its analyte on a solid surface through an enzyme-linked reagent.

Assay [3] deals with T2, mouse Gal-3. The assay is described as follows: ELISA on mouse Gal-3 (moGal3), one OD450 value per clone.
Assay [4] has as its target T1, human Galectin-3 (LGALS3). The assay is described as follows: ELISA on human Gal-3 (huGal3), one OD450 value per clone.
For assay [5], the target named is T3, PE labeled Gal-3 (Gal-3-PE) (human, UniProt P17931 1-250, limits assumed, labelled with PE (phycoerythrin; Innova Biosciences kit), sites not stated).
T3 construct: Bought human Gal-3 labelled with PE; also called huGal-3 (Abcam ab89487) labelled with PE
The assay is described as follows: blockade of Gal-3-PE binding to OVCAR3 cells by purified antibody, number of Gal-3-PE-bound cells (Mirrorball). The source says:
Reactions to measure binding of Gal-3-PE to OVCAR3 cells were set up in the presence of PBS (negative control), or increasing concentrations of the indicated antibody. Purified antibodies were used in the binding reactions. Shown are the effects of antibody concentration on the extent of inhibition of Gal-3-PE binding to OVCAR3 by antibody clones 20F08 and 12H07 (FIG. 6A), which have the identical sequences, 46H02 (FIG. 6B), clones 38E05 and 39F02 (FIG. 6C), which also have identical sequences, and 14D11.2D3 (FIG. 6D).
An assay for Gal-3-PE binding to cancer cells was developed as a secondary screen. huGal-3 (Abcam ab89487) was labelled with PE (Innova Biosciences) according to manufacturer's instructions. The assay for Gal-3-PE binding to OVCAR3 cells was performed as follows: cultured […] cells were trypsinized and washed with culture medium. 500, 1000 or 2000 cells were incubated with various concentrations of Gal-3-PE. The indicated number of OVCAR3 cells were pipetted into a 96-well plate with the indicated amount of Gal-3-PE and incubated on the bench in the dark for 2 hrs prior to being read on a Mirrorball® device (TTP Labtech). Binding of Gal-3-PE to OVCAR3 cells was detected using the Mirrorball® flow cytometer.
Next, the clones were subjected to determination of dose-response of blockade of Gal-3-PE binding to OVCAR3 cells. […]

T1 sequence (P17931 2-250 limits assumed): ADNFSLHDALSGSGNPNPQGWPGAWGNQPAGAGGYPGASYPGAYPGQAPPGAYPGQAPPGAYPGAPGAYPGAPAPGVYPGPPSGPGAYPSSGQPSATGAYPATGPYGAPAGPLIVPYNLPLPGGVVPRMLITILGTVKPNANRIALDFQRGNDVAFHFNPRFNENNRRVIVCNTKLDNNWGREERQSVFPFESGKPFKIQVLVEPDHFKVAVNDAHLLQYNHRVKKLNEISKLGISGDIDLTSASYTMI
T2 sequence (P16110 2-264 limits assumed): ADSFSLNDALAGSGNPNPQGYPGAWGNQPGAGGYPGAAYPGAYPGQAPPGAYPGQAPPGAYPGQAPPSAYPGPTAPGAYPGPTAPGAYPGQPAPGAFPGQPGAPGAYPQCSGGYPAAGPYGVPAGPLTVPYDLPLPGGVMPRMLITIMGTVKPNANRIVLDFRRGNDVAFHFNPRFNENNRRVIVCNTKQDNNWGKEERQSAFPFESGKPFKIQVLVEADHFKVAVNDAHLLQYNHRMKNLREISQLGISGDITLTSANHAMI
T3 sequence (P17931 whole entry): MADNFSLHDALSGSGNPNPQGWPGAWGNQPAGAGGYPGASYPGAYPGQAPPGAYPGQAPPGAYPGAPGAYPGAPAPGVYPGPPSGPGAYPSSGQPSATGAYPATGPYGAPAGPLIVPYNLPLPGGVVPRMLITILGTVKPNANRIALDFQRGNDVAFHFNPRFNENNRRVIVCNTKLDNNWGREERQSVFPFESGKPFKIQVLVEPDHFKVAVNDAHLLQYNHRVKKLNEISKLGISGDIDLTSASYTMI

B1: mAb 20F08 (antibody, V domains shown)
VH: EVQLVESGGGLVKPGGSLRLSCAASGFIFSNYNINWVRQAPGKGLEWVSCVSRSNYTYYTDSVKGRFTISRDNAKKSLYLQMNSLRAEDTAVYYCARDCGTYGVFDYWGQGTLVTVSS
VL: ETTVTQSPASLSMAIGEKVTIRCITSTDIDDDMNWYQQKPGEPPKLLISEGNILRPGVPSRFSSSGYGTDFVFAIENMLSEDVADYYCLQSDNLPYTFGGGTKLELK
notes: Hybridoma antibody from AlivaMab Mouse; Human HC (chimeric IgH with mouse CH2 and CH3) and murine LC; also called clone 20F08
What is called Kd is the concentration at which binding is half-saturated. Low readings indicate a tighter complex, high ones a looser complex. Regarding B1, the Kd in assay [1] is 44 nM. Moreover, the binding result with mouse Gal-3 [2] is given as “no binding”. The OD450 with mouse Gal-3 [3] was 0.047; in assay [4], 0.523.

B2: mAb 12H07 (antibody, V domains shown)
VH: B1 VH
VL: B1 VL
notes: Hybridoma antibody from AlivaMab Mouse; Human HC (chimeric IgH with mouse CH2 and CH3) and murine LC; also called 12H7; clone 12H07
With B2, the binding result with mouse Gal-3 [2] is given as “no binding”. The OD450 with mouse Gal-3 [3] was 0.049; in assay [4], 1.4.

B3: mAb 39F02 (antibody, V domains shown)
VH: EVQLLESGGGLVQPGGSLRLSCAASGFTLSNYAMSWVRQAPGKGLEWVSAISGSGGGTYNADSVKGRFTISRDNSKNTLYLQMNSLRAEDTAVYYCAKEAWISYFDYWGQGTLVTVSS
VL: DIVMSQSPSSLAVSVGEKVTLSCKSSQSLLYGDDQKNYLAWYQQKPGQSPKLLLYWASTWESGVPDRFTGSGSGTDFTLTISSVKAADLAVYYCQQYYSYPWTFGGGTKLEIK
notes: Hybridoma antibody from AlivaMab Mouse; Human HC (chimeric IgH with mouse CH2 and CH3) and murine LC; also called clone 39F02
As to B3, the OD450 in the assay with mouse Gal-3 [3] came out at 0.726; in assay [4], 0.502.

B4: mAb 38E05 (antibody, V domains shown)
VH: B3 VH
VL: B3 VL
notes: Hybridoma antibody from AlivaMab Mouse; Human HC (chimeric IgH with mouse CH2 and CH3) and murine LC; also called clone 38E05
B4: the OD450 was 1.12 in the assay with mouse Gal-3 [3] and 0.86 in assay [4].

B5: mAb 46H02 (antibody, V domains shown)
VH: QVQLVQSGAEVKKPGASVKVSCKASGYTFTGYSMHWVRQAPGQGLEWMGWINPHSGGTNSAQKFQGRVTMTRDTSIGTAYMELNRLRSDDTAVYYCVRDNPITGFDYWGQGTLVTVSS
VL: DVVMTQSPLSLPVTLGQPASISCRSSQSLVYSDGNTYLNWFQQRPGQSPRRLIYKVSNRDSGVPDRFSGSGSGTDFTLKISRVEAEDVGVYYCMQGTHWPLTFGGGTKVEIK
notes: Hybridoma antibody from AlivaMab Mouse; 46H02 has a fully human F(ab)2 (human light chain); also called clone 46H02
Turning to B5, in assay [1], the Kd stood at 10 nM. Further, the “IC50 (read off the curve)” value in assay [5] is roughly 1 µg/mL. Further, the OD450 amounted to 1.38 with mouse Gal-3 [3] and 2.56 in assay [4].
